Source: US20260199558A1, “INJECTABLE COMPOSITIONS FOR TREATING JOINT CONDITIONS” (Ohio State Innovation Foundation, priority 2022, published 2026)

How the values were obtained:
[1] = test system: human cartilage endplate (CEP) cells; assay: PDA nanoparticle / free bevacizumab dose effect on human cartilage endplate (CEP) cell viability; type: cell-based
[2] = test system: human annulus fibrosus (AF) cells; assay: PDA nanoparticle / free bevacizumab dose effect on human annulus fibrosus (AF) cell viability; type: cell-based; details: doses higher than 1 mg/mL

Bevacizumab
cell viability ([1]; 1 mg/mL dosing): 30% | cell viability ([1]; up to 0.5 mg/mL): > 80% | cell viability [2]: approximately 30%
